In US9394371B2, “Antibody-mediated disruption of quorum sensing in bacteria” (The Scripps Research Institute, priority 2007, dated 2016):

Columns and labels:
AIP-4 = test: Competition ELISA (free native AIP against hapten-BSA coated plates); assay type: binding, S. aureus; conditions: AP1 Sups; AP1-BSA coated plates; read-out: AIP4 wt
Experimental: (§1) The optimal concentrations of the AP4-BSA conjugate as well as of each mAb were determined. 96 well ELISA plates were coated with the appropriate amount of AP4-BSA conjugate respectively. The plates were blocked with 4% skim milk, washed and mAbs were added at the predetermined optimal concentration. The plates were washed and free antigen, i.e. the native AIPs 1-4, was added to the wells in a concentration series starting at 100 μM. The plate was incubated for 1 hour at 37° C., thoroughly washed, and goat anti-mouse-horseradish peroxidase (HRP) conjugate (Pierce, Rockford, Ill.) was added. After an incubation period of 1 hour at RT, the plate was thoroughly washed again and the HRP substrate (TMB substrate kit; Pierce) was added, the reaction was allowed to develop for 15 minute and stopped by the addition of 2 M H2SO4. The absorbance at 450 nm was read and the values plotted using GraFit (Erithacus Software Ltd). The free antigen concentration at which the absorbance value is 50% of the maximum absorbance was considered the Kd of the antibody for its antigen.
as §1, with “For the competition ELISA analysis, the optimal concentrations” for “The optimal concentrations”, “of the AP1-BSA, AP3-BSA, or AP4-BSA conjugate,” for “of the AP4-BSA conjugate”, “or AP4-BSA conjugate, as well” for “the AP4-BSA conjugate as well”, “amount of AP1-BSA, AP3-BSA, or AP4-BSA conjugate” for “amount of AP4-BSA conjugate”, “blocked with 4 v % skim milk,” for “blocked with 4% skim milk,”, “for 15 minutes and stopped” for “for 15 minute and stopped”

AIP-1 = test: as above; assay type: binding, S. aureus; conditions: AP1 Sups; AP1-BSA coated plates; read-out: AIP1 wt
S. aureus RN6390B [1] = assay type: cell-based
S. aureus RN6390B [2] = test: Static biofilm analysis (crystal violet); assay type: cell-based; conditions: FIG. 10B
S. aureus USA300 = test: Postexposure therapy of lethal systemic MRSA USA300 challenge; assay type: in vivo, C57BL/6 mice; conditions: 1 mg i.p. 2 hours after infection with at least 1×10^8 S. aureus USA300; n=6; FIG. 12
Experimental: Mice were treated with AP1-15B4 (1 mg) or control IgG (1 mg) 2 hours after S. aureus injection (1-3×10^8 i.p.). The numbers in parenthesis show survivors per group, p=0.02; n=6 for each group.
C57BL/6 mice received 1 mg of AP1-15B4 (i.p.), isotype control IgG or PBS 2 hours after they had been infected with at least 1×10^8 S. aureus USA300, an agr I MRSA strain. See Diep et al., Lancet 2006, 367, (9512), 731-739. USA300 is in fact one of the most common community-acquired MRSA (CA-MRSA) strains and represents an increasing threat for civilians and military personnel. Hageman et al., Diagn Microbiol Infect Dis 2008; James et al., Arch Dis Child Fetal Neonatal Ed 2008, 93, (1), F40-4; Tenover et al., J Clin Microbiol 2006, 44, (1), 108-18; Beilman et al., Surg Infect (Larchmt) 2005, 6, (1), 87-92. […] In contrast, only two of the PBS treated control mice (2/6) and 2 of the control IgG treated mice (2/6) survived longer than 24 hours.

AIP-2 = test: Competition ELISA (free native AIP against hapten-BSA coated plates); assay type: binding, S. aureus; conditions: AP1 Sups; AP1-BSA coated plates; read-out: AIP2 wt

B1: AP1-15B4: murine anti-AIP1 monoclonal antibody; VH SEQ ID NO: 19, VL SEQ ID NO: 147 (antibody, V domains shown)
VH: EVHLVESGGDLVKPGGSLKLSCAASGFAFSDFAMSWVRQTPEKRLEWVAIIKSDDSYTYYPDSVRDRFTISRDNARNTLYLQMTSLRSEDTALYYCTKIYDAYFYAMDYWGQGTSVTVSS
VL: DIVRTQSPLSLSVSLGDQASISCRSSQSLLHSNGNTYLHWYLQKPGQSPKLLIYKVSNRFSGVPDRFSGSGSGTDFTLKISILEAEDLGIYFCSQSTHFPTFGGGTKLEIK
modifications: Murine
Kd (AIP-4): > 100 µM | Kd (AIP-1): ~0.8 µM | quorum sensing inhibition of group I strains (α-hemolysin expression) (S. aureus RN6390B [1]): efficiently inhibit quorum sensing | quorum sensing inhibition, hemolysin expression (S. aureus RN6390B [1]): most potent activity | static biofilm formation (S. aureus RN6390B [2]): increase in biofilm formation | mice surviving through the 48-hour observation period (S. aureus USA300): 4 out of 6 | Kd (AIP-2): > 100 µM
